Reference: the supplement of paper PMC9112550, “Optimization of the antimicrobial peptide Bac7 by deep mutational scanning” (BMC Biology, 2022)

Each sequence was assayed on Escherichia coli TOP10 (assay: shrunken log2 fold change of peptide-encoding DNA abundance (4.5 h post-induction vs induction); higher = less antimicrobial activity (less host growth inhibition)). Details: time post-induction: 4.5 h; library: site-saturation at positions 5, 18, 19, 20.
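Further: peptides expressed intracellularly from a pBAD plasmid library in pooled LB shake-flask culture, induced with 0.3% L-arabinose, DNA abundance read by NGS, three biological replicates, DESeq2 with apeglm shrinkage.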

Point of comparison: RRIRSRPPRLPRPRPRPQCNPRP, “shrunken log2 fold change” value -0.13. Against it:
- RRIRIRPPRLPRPRPRPSKAPRP — within 0.2 log units, -0.176
- RRIRDRPPRLPRPRPRPVIGPRP — higher, 0.16
- RRIRDRPPRLPRPRPRPAIKPRP — higher, 0.235
- RRIRHRPPRLPRPRPRPVDHPRP — within 0.2 log units, -0.0462
- RRIRSRPPRLPRPRPRPSRFPRP — within 0.2 log units, -0.0392
- RRIRRRPPRLPRPRPRPCTLPRP — lower, -0.49
- RRIRFRPPRLPRPRPRPRQAPRP — higher, 0.128
- RRIRIRPPRLPRPRPRPDEPPRP — higher, 0.115
- RRIRYRPPRLPRPRPRPLWCPRP — within 0.2 log units, -0.125
- RRIRFRPPRLPRPRPRPTIIPRP — lower, -0.66
- RRIRCRPPRLPRPRPRPQYFPRP — within 0.2 log units, -0.252
- RRIRHRPPRLPRPRPRPETDPRP — within 0.2 log units, -0.253
- RRIRNRPPRLPRPRPRPQKNPRP — within 0.2 log units, -0.318
- RRIRHRPPRLPRPRPRPVTSPRP — within 0.2 log units, -0.000369
- RRIRRRPPRLPRPRPRPSWCPRP — within 0.2 log units, -0.154
- RRIRERPPRLPRPRPRPCSLPRP — within 0.2 log units, -0.264
- RRIRYRPPRLPRPRPRPWKYPRP — within 0.2 log units, -0.0732
- RRIRPRPPRLPRPRPRPDRSPRP — within 0.2 log units, -0.1
- RRIRCRPPRLPRPRPRPFLIPRP — lower, -0.36
- RRIRSRPPRLPRPRPRPGHEPRP — higher, 0.101
- RRIRGRPPRLPRPRPRPMQIPRP — higher, 0.406
- RRIRARPPRLPRPRPRPNIWPRP — higher, 0.133
- RRIRARPPRLPRPRPRPWRGPRP — higher, 0.39
- RRIRERPPRLPRPRPRPTCVPRP — within 0.2 log units, -0.0193
- RRIRWRPPRLPRPRPRPFGRPRP — within 0.2 log units, -0.0754
- RRIRNRPPRLPRPRPRPRHPPRP — higher, 0.136
- RRIRTRPPRLPRPRPRPRISPRP — within 0.2 log units, -0.106
- RRIRTRPPRLPRPRPRPHIQPRP — within 0.2 log units, -0.0986
- RRIRGRPPRLPRPRPRPSCMPRP — higher, 0.336
- RRIRWRPPRLPRPRPRPRNTPRP — within 0.2 log units, -0.0542
- RRIRLRPPRLPRPRPRPSNKPRP — lower, -0.646
- RRIRGRPPRLPRPRPRPVLSPRP — higher, 0.238
- RRIRYRPPRLPRPRPRPKSIPRP — within 0.2 log units, -0.0776
- RRIRDRPPRLPRPRPRPQLTPRP — within 0.2 log units, 0.0489
- RRIRNRPPRLPRPRPRPESPPRP — within 0.2 log units, 0.0142
- RRIRDRPPRLPRPRPRPFKHPRP — within 0.2 log units, -0.264
- RRIRARPPRLPRPRPRPAPHPRP — higher, 0.814
- RRIRNRPPRLPRPRPRPEIMPRP — within 0.2 log units, 0.0538
- RRIRQRPPRLPRPRPRPSVVPRP — higher, 0.082
- RRIRTRPPRLPRPRPRPQNHPRP — lower, -1.49
- RRIRIRPPRLPRPRPRPDIVPRP — lower, -0.906
- RRIRCRPPRLPRPRPRPGNKPRP — within 0.2 log units, -0.223
- RRIRRRPPRLPRPRPRPGFHPRP — higher, 0.0982
- RRIRVRPPRLPRPRPRPSLMPRP — lower, -0.368
- RRIRARPPRLPRPRPRPCIAPRP — within 0.2 log units, -0.0146
- RRIRQRPPRLPRPRPRPGPCPRP — within 0.2 log units, -0.0469
- RRIRARPPRLPRPRPRPWIDPRP — within 0.2 log units, -0.0113
- RRIRKRPPRLPRPRPRPCNPPRP — within 0.2 log units, -0.00652
- RRIRMRPPRLPRPRPRPNWFPRP — lower, -0.607
- RRIRTRPPRLPRPRPRPALPPRP — higher, 0.204
- RRIRFRPPRLPRPRPRPTDEPRP — within 0.2 log units, 0.00361
- RRIRSRPPRLPRPRPRPTAEPRP — higher, 0.825
- RRIRRRPPRLPRPRPRPFMFPRP — higher, 0.234
- RRIRNRPPRLPRPRPRPVSCPRP — within 0.2 log units, -0.129
- RRIRWRPPRLPRPRPRPVFFPRP — higher, 0.238
- RRIRKRPPRLPRPRPRPAFAPRP — higher, 0.647
- RRIRARPPRLPRPRPRPSPKPRP — higher, 0.303
- RRIRPRPPRLPRPRPRPDRHPRP — within 0.2 log units, -0.31
- RRIRARPPRLPRPRPRPCLQPRP — within 0.2 log units, -0.0914
- RRIRERPPRLPRPRPRPQSYPRP — within 0.2 log units, -0.0192
- RRIRARPPRLPRPRPRPQQVPRP — higher, 0.0996
- RRIRWRPPRLPRPRPRPKNGPRP — within 0.2 log units, -0.156
- RRIRRRPPRLPRPRPRPDGHPRP — within 0.2 log units, -0.0521
- RRIRHRPPRLPRPRPRPQKSPRP — within 0.2 log units, -0.138
- RRIRTRPPRLPRPRPRPGTMPRP — within 0.2 log units, -0.254
- RRIRMRPPRLPRPRPRPVAMPRP — higher, 0.57
- RRIRYRPPRLPRPRPRPMIAPRP — within 0.2 log units, -0.188
- RRIRDRPPRLPRPRPRPQDAPRP — within 0.2 log units, -0.103
- RRIRWRPPRLPRPRPRPCITPRP — within 0.2 log units, -0.0175
- RRIRMRPPRLPRPRPRPFDVPRP — higher, 0.268
- RRIRLRPPRLPRPRPRPPLLPRP — higher, 0.158
- RRIRYRPPRLPRPRPRPIYAPRP — lower, -0.461
- RRIRFRPPRLPRPRPRPHYNPRP — lower, -0.786
- RRIRLRPPRLPRPRPRPSNQPRP — lower, -1.04
